Primed or numbered codes have the meaning given here. [ ]: non-standard residue; d: D form. Ygp″ = O-(PEG8-amino)-tyrosine (O-(8x polyethylene glycol-amino)-tyrosine); Yn3″ = O-(PEG9-azido)-tyrosine (O-(9x polyethylene glycol-azido)-tyrosine); Ygp = O-(8x polyethylene glycol-amino)-tyrosine; Yn3 = O-(9x polyethylene glycol-azido)-tyrosine; hSer = N[C@@H](CCO)C(=O)O; Nle = CCCC[C@H](N)C(=O)O
Biological target: T1, IL-2 receptor βγ complex on pan T cells (human, UniProt P14784 27-551; P31785 23-369)
T1 sequence (looked up) 1: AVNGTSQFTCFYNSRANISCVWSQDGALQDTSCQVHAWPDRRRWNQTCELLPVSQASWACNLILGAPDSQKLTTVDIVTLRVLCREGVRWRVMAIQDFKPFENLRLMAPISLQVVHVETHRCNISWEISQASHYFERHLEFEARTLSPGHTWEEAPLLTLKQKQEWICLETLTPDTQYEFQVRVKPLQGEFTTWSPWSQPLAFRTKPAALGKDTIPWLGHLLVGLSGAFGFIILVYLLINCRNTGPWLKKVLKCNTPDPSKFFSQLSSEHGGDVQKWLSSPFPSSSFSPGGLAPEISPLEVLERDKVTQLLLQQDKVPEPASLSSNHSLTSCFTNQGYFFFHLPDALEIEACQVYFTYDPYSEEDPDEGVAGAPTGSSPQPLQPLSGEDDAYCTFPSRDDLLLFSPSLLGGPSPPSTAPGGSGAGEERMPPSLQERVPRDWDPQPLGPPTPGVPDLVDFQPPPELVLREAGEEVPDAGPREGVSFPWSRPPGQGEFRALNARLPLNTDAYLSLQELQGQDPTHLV
T1 sequence (looked up) 2: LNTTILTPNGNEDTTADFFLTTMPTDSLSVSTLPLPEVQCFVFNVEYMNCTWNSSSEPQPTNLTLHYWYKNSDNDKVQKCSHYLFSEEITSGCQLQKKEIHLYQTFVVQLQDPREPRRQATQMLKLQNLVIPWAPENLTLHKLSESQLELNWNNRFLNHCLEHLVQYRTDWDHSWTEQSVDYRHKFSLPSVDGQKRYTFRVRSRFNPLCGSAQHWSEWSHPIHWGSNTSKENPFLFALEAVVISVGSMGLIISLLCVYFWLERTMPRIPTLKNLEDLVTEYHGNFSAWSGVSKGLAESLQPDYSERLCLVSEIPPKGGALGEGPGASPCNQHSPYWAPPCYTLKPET
Test: cell-based or functional assay

B1: CMP-128, MMP2 cleaved (ligand)
chain: APTSSSTKKTQLQLEHLLLDLQKILNGINNYKNPKLTR[Nle]L[hSer][Yn3″]KF[Ygp″][Nle]PKKATELKHLQCLEEELKPLEEVL[hSer]LAQSKNFHLRPRDLISNINVIVLELKGSETTF[hSer]CEYADETATIVEFLNRWITFSQSIISTLT
modifications: ends and bridges not checked; also: Lys23 side chain attached via PEG9 to cleavable peptide, MMP2-cleaved, remnant stays attached, cut site not given here
  Average EC50, pSTAT5 assay in pan T cells, MMP2 cleaved molecule: 3.68 nM

B2: CMP-123, MMP2 cleaved (ligand)
chain: APTSSSTKKTQLQLEHLLLDLQKILNGINNYKNPKLTR[Nle]L[hSer][Yn3″]KF[Ygp″][Nle]PKKATELKHLQCLEEELKPLEEVL[hSer]LAQSKNFHLRPRDLISNINVIVLELKGSETTF[hSer]CEYADETATIVEFLNRWITFSQSIISTLT
modifications: ends and bridges not checked; also: Lys23 side chain attached via PEG9 to cleavable peptide, MMP2-cleaved, remnant stays attached, cut site not given here
  Average EC50, pSTAT5 assay in pan T cells, MMP2 cleaved molecule: 2.93 nM

B3: CMP-143, MMP2 cleaved (ligand)
chain: APTSSSTKKTQLQLEHLLLDLQKILNGINNYKNPKLTR[Nle]L[hSer][Yn3]KF[Ygp][Nle]PKKATELKHLQCLEEELKPLEEVL[hSer]LAQSKNFHLRPRDLISNINVIVLELKGSETTF[hSer]CEYADETATIVEFLNRWITFSQSIISTLT
modifications: not fully specified (residue 23); ends and bridges not checked; also: MMP2-cut remnant of cleavable moiety on Lys23 side chain, not given here
  Average EC50, pSTAT5 assay in pan T cells, MMP2 cleaved molecule: 1.99 nM

B4: CMP-125, MMP2 cleaved (ligand)
chain: APTSSSTKKTQLQLEHLLLDLQKILNGINNYKNPKLTR[Nle]L[hSer][Yn3″]KF[Ygp″][Nle]PKKATELKHLQCLEEELKPLEEVL[hSer]LAQSKNFHLRPRDLISNINVIVLELKGSETTF[hSer]CEYADETATIVEFLNRWITFSQSIISTLT
modifications: ends and bridges not checked; also: cleavable moiety on Lys23 side chain, not given here
  Average EC50, pSTAT5 assay in pan T cells, MMP2 cleaved molecule: 1.73 nM

B5: CMP-118, MMP2 cleaved (ligand)
chain: APTSSSTKKTQLQLEHLLLDLQKILNGINNYKNPKLTR[Nle]L[hSer][Yn3″]KF[Ygp″][Nle]PKKATELKHLQCLEEELKPLEEVL[hSer]LAQSKNFHLRPRDLISNINVIVLELKGSETTF[hSer]CEYADETATIVEFLNRWITFSQSIISTLT
modifications: ends and bridges not checked; also: Lys23 side chain attached to cleavable peptide, MMP2-cleaved, remnant stays attached, cut site not given here
  Average EC50, pSTAT5 assay in pan T cells, MMP2 cleaved molecule: 0.9 nM

B6: CMP-141, MMP2 cleaved (ligand)
chain: APTSSSTKKTQLQLEHLLLDLQKILNGINNYKNPKLTR[Nle]L[hSer][Yn3]KF[Ygp][Nle]PKKATELKHLQCLEEELKPLEEVL[hSer]LAQSKNFHLRPRDLISNINVIVLELKGSETTF[hSer]CEYADETATIVEFLNRWITFSQSIISTLT
modifications: not fully specified (residue 23); ends and bridges not checked; also: MMP2-cleaved, remnant of moiety on Lys23 side chain, not given here
  Average EC50, pSTAT5 assay in pan T cells, MMP2 cleaved molecule: 0.8 nM

B7: CMP-126, MMP2 cleaved (ligand)
chain: APTSSSTKKTQLQLEHLLLDLQKILNGINNYKNPKLTR[Nle]L[hSer][Yn3″]KF[Ygp″][Nle]PKKATELKHLQCLEEELKPLEEVL[hSer]LAQSKNFHLRPRDLISNINVIVLELKGSETTF[hSer]CEYADETATIVEFLNRWITFSQSIISTLT
modifications: ends and bridges not checked; also: Lys23 side chain attached to cleavable peptide, MMP2-cleaved, remnant stays attached, cut site not given here
  Average EC50, pSTAT5 assay in pan T cells, MMP2 cleaved molecule: 2.03 nM

B8: CMP-119, MMP2 cleaved (ligand)
chain: APTSSSTKKTQLQLEHLLLDLQKILNGINNYKNPKLTR[Nle]L[hSer][Yn3″]KF[Ygp″][Nle]PKKATELKHLQCLEEELKPLEEVL[hSer]LAQSKNFHLRPRDLISNINVIVLELKGSETTF[hSer]CEYADETATIVEFLNRWITFSQSIISTLT
modifications: ends and bridges not checked; also: Lys23 side chain attached to cleavable peptide, MMP2-cleaved, remnant stays attached, cut site not given here
  Average EC50, pSTAT5 assay in pan T cells, MMP2 cleaved molecule: 0.63 nM

B9: CMP-127, MMP2 cleaved (ligand)
chain: APTSSSTKKTQLQLEHLLLDLQKILNGINNYKNPKLTR[Nle]L[hSer][Yn3″]KF[Ygp″][Nle]PKKATELKHLQCLEEELKPLEEVL[hSer]LAQSKNFHLRPRDLISNINVIVLELKGSETTF[hSer]CEYADETATIVEFLNRWITFSQSIISTLT
modifications: ends and bridges not checked; also: Lys23 side chain attached via PEG9 to cleavable peptide, MMP2-cleaved, remnant stays attached, cut site not given here
  Average EC50, pSTAT5 assay in pan T cells, MMP2 cleaved molecule: 2.43 nM

B10: CMP-124, MMP2 cleaved (ligand)
chain: APTSSSTKKTQLQLEHLLLDLQKILNGINNYKNPKLTR[Nle]L[hSer][Yn3″]KF[Ygp″][Nle]PKKATELKHLQCLEEELKPLEEVL[hSer]LAQSKNFHLRPRDLISNINVIVLELKGSETTF[hSer]CEYADETATIVEFLNRWITFSQSIISTLT
modifications: ends and bridges not checked; also: Lys23 side chain attached to cleavable peptide, MMP2-cleaved, remnant stays attached, cut site not given here
  Average EC50, pSTAT5 assay in pan T cells, MMP2 cleaved molecule: 2.07 nM

B11: CMP-122, MMP2 cleaved (ligand)
chain: APTSSSTKKTQLQLEHLLLDLQKILNGINNYKNPKLTR[Nle]L[hSer][Yn3″]KF[Ygp″][Nle]PKKATELKHLQCLEEELKPLEEVL[hSer]LAQSKNFHLRPRDLISNINVIVLELKGSETTF[hSer]CEYADETATIVEFLNRWITFSQSIISTLT
modifications: ends and bridges not checked; also: Lys23 side chain attached via PEG9 to cleavable peptide, MMP2-cleaved, remnant stays attached, cut site not given here
  Average EC50, pSTAT5 assay in pan T cells, MMP2 cleaved molecule: 3.55 nM

B12: CMP-129, MMP2 cleaved (ligand)
chain: APTSSSTKKTQLQLEHLLLDLQKILNGINNYKNPKLTR[Nle]L[hSer][Yn3″]KF[Ygp″][Nle]PKKATELKHLQCLEEELKPLEEVL[hSer]LAQSKNFHLRPRDLISNINVIVLELKGSETTF[hSer]CEYADETATIVEFLNRWITFSQSIISTLT
modifications: ends and bridges not checked; also: Lys23 side chain attached via PEG9 to cleavable peptide, MMP2-cleaved, remnant stays attached, cut site not given here
  Average EC50, pSTAT5 assay in pan T cells, MMP2 cleaved molecule: 1.4 nM

B13: CMP-142, MMP2 cleaved (ligand)
chain: APTSSSTKKTQLQLEHLLLDLQKILNGINNYKNPKLTR[Nle]L[hSer][Yn3]KF[Ygp][Nle]PKKATELKHLQCLEEELKPLEEVL[hSer]LAQSKNFHLRPRDLISNINVIVLELKGSETTF[hSer]CEYADETATIVEFLNRWITFSQSIISTLT
modifications: not fully specified (residue 23); ends and bridges not checked; also: MMP2-cut remnant of cleavable moiety on Lys23 side chain, not given here
  Average EC50, pSTAT5 assay in pan T cells, MMP2 cleaved molecule: 0.56 nM

B14: CMP-120, MMP2 cleaved (ligand)
chain: APTSSSTKKTQLQLEHLLLDLQKILNGINNYKNPKLTR[Nle]L[hSer][Yn3″]KF[Ygp″][Nle]PKKATELKHLQCLEEELKPLEEVL[hSer]LAQSKNFHLRPRDLISNINVIVLELKGSETTF[hSer]CEYADETATIVEFLNRWITFSQSIISTLT
modifications: ends and bridges not checked; also: Lys23 side chain attached to cleavable peptide, MMP2-cleaved, remnant stays attached, cut site not given here
  Average EC50, pSTAT5 assay in pan T cells, MMP2 cleaved molecule: 0.7 nM

From patent US20240417436A1 (BRIGHT PEAK THERAPEUTICS, published 2024)
